Our source for the Kd values is patent US20210208163A1.

The target of the assay is recombinant mouse integrin αvβ3 (R&D Systems, 7889-AV-050) (mouse) (UniProt P43406). The assay can be described thus: SPR, mutant ICOSL immobilised, αvβ3 as analyte, 0.2 mM Ca2+ and 0.1 mM Mg2+, steady-state affinity fit. In general terms: Surface plasmon resonance follows binding to a sensor surface in real time, without labels.
Chain of recombinant mouse integrin αvβ3 (R&D Systems, 7889-AV-050) (mouse) (P43406 31-988 limits assumed, chain 1 of 2): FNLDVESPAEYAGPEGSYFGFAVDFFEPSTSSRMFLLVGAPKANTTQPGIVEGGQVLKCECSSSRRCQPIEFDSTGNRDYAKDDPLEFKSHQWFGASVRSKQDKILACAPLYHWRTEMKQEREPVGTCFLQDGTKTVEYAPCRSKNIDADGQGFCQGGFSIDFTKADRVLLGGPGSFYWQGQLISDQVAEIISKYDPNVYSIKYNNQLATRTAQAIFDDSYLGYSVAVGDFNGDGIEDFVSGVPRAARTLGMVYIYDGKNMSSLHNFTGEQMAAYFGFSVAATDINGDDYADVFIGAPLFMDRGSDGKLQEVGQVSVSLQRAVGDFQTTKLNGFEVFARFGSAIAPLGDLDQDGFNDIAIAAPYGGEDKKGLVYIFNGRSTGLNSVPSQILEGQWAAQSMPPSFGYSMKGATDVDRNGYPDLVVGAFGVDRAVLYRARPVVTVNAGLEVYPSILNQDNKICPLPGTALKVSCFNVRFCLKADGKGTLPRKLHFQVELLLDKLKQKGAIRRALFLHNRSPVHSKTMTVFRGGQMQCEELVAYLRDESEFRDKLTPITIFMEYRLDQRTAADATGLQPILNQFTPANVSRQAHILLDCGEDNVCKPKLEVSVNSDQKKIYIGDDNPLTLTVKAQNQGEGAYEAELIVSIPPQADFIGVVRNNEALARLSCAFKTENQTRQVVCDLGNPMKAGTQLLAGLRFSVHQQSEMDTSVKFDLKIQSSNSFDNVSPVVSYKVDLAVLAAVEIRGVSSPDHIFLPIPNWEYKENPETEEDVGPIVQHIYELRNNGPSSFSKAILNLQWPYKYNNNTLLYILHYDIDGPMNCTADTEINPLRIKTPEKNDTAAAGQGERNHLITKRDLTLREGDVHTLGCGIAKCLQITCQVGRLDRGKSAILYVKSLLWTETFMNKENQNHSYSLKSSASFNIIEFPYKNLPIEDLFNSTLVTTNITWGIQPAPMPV
Chain of recombinant mouse integrin αvβ3 (R&D Systems, 7889-AV-050) (mouse) (O54890 26-717 limits assumed, chain 2 of 2, further chain): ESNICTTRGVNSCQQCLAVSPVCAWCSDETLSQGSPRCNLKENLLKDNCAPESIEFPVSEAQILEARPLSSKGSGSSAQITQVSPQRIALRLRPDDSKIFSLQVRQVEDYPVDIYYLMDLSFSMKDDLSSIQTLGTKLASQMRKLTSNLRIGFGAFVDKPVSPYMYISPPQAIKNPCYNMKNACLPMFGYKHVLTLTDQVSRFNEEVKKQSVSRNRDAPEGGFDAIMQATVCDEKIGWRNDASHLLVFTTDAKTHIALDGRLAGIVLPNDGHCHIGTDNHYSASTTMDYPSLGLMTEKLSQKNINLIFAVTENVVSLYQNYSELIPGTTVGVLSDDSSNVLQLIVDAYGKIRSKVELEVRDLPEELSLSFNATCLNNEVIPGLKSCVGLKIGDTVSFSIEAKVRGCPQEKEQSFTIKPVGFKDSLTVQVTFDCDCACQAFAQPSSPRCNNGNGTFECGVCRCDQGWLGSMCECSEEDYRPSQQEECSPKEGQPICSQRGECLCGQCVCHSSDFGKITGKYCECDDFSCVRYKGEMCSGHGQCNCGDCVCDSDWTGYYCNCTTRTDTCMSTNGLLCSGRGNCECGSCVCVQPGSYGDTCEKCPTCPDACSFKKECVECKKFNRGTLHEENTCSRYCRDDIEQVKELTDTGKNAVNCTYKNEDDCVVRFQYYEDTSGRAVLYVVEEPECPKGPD

Regarding “RGD-mutated mouse ICOSL protein (RGD motif replaced with AAA) (from UniProt Q9JHJ8 44-322) (ligand)”, the Kd was determined as 830 µM.

The term Kd denotes the free concentration of one partner at which half of the binding sites on the other are occupied at equilibrium, for simple one-to-one binding.
